T1: ArlR full length (Staphylococcus aureus, UniProt Q9KJN4 1-219)
T1 sequence: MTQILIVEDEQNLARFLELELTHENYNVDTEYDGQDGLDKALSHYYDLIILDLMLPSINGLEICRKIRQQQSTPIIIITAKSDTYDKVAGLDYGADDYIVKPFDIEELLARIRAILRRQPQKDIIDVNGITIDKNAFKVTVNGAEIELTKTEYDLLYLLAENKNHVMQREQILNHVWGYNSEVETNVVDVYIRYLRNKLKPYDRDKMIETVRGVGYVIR

B1: ArlR receiver domain (amino acids 1–121) (domain or fragment, S. aureus, UniProt Q9KJN4 1-121, looked up)
chain: MTQILIVEDEQNLARFLELELTHENYNVDTEYDGQDGLDKALSHYYDLIILDLMLPSINGLEICRKIRQQQSTPIIIITAKSDTYDKVAGLDYGADDYIVKPFDIEELLARIRAILRRQPQ
B2: ArlR-BdDNA-wt 24 bp (dsDNA)
DNA 1: TGATAGTATTTTAATTTGCAATAG
DNA 2: CTATTGCAAATTAAAATACTATCA
B3: Position 1,4&6 mutation 24 bp (dsDNA)
DNA 1: TGCTATTCTTTTAATTGGAAAGAG
DNA 2: CTCTTTCCAATTAAAAGAATAGCA

Experiments:
SEC = biological target: the molecule itself; assay: SEC
ArlR full length = biological target: T1, ArlR full length; assay: EMSA

| Binder | stoichiometry N (SEC) | binding result (ArlR full length) |
| --- | --- | --- |
| B1 | 2 |  |
| B2 |  | binds |
| B3 |  | no binding |

Reference: publication PMC6868441 (Nucleic Acids Research, 2019)
